The assay deals with Mps1-1 kinetochores (budding yeast) (UniProt P40568). Briefly: optical trap force-clamp flow assay.
Sequence of UniProt P40568 (P40568 whole entry, looked up): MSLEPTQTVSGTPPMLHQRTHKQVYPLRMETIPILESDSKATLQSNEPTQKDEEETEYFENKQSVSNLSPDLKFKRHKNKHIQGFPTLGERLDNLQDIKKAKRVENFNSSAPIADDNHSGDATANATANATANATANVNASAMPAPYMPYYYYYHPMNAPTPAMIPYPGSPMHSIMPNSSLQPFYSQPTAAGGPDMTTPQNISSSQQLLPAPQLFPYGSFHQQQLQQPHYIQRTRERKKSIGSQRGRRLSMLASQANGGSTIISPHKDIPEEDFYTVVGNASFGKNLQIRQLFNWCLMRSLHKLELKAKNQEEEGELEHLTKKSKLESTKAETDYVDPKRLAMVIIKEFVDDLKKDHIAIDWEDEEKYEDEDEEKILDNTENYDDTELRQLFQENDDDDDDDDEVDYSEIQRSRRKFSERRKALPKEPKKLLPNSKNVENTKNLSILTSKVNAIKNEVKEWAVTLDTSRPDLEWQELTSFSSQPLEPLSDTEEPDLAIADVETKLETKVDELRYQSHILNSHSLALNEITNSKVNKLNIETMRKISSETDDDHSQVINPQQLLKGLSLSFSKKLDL

The substance “dynamic microtubules (assembling and shortening tips of single, coverslip-anchored microtubules) (from UniProt Q6B856 1-445) (complex)” yielded a detachment rate (with 0.5 μM AurB*, 1.5 pN) of 28.9 hr^-1; a detachment rate (with 0.5 μM AurB*, 5 pN) of 7 hr^-1; a detachment rate (with 0.5 μM AurB*, ~1 pN) of 4.6 hr^-1; a detachment rate (with 0.5 μM AurB*-KD, 1.5 pN) of 10.4 hr^-1. Also, the detachment rate (with 0.5 μM AurB*-KD, 5 pN) worked out at 7 hr^-1 and the detachment rate (with 5 μM AurB*, ~1 pN) amounted to 7.2 hr^-1.
